Laboratory results published in patent publication US10562935B2, “Stapled peptides and uses thereof” (London Health Sciences Centre Research Inc., priority 2015, dated 2020).
Bridges are numbered along the chain shown (N, C = ends).

How the values were obtained:
[1] = Circular dichroism (CD) spectroscopy of linear and stapled peptides in water or 40% TFE/water (Example 3); assay type: physicochemical; conditions: for [0]208 mean residue ellipticity: λ = 208 nm; for [0]222 mean residue ellipticity: λ = 222 nm
Description: CD spectra were obtained on a Jasco J-810 spectropolarimeter and recorded in the range of 180-260 nm. Peptide solutions were prepared with a 0.1M phosphate buffer solution to a concentration of 0.5 mM. The measurements were performed in quartz cuvettes with a path length of 1 mm and a scanning speed of 10-50 nm/min. Five individual data points were averaged by the instrument in order to obtain the reported CD spectrum. The measurements were carried out at 20° C. A blank solution of 0.1M phosphate buffer solution was run before every measurement in order to baseline correct for any UV-interference observed from the buffer.
CD data for the 14- and 15-mer peptides containing HABD2 (VSKLRSQLVKRKQN, SEQ ID NO: 2) and HABD1 (NLKQKIKHVVKLKDE, SEQ ID NO: 4) and cyclized derivatives thereof in water or 40% TFE/water are provided below in Tables 8 (water) and 9 (40% TFE/water). Tables 8 and 9 provide the mean residue ellipicity ([θ] deg cm^2 dmol^−1) at λ=222 and 208 nm for each peptide and ratios of ellipticities at 222/208. Each of the peptides was acetylated at its amino terminus and amidated at its carboxy terminus.
CD data for linear peptides having the sequences […] (SEQ ID NO: 5) and […] (SEQ ID NO: 6) and cyclized derivatives thereof in water or 40% TFE/water are provided below in Tables 12 (water) and 13 (40% TFE/water). Tables 12 and 13 provide the mean residue ellipicity ([0] deg cm^2 dmol^−1) at λ=222 and 208 nm for each peptide and ratios of ellipticities at 222/208. Each of the peptides was acetylated at its amino terminus and amidated at its carboxy terminus.
Circular Dichroism (CD) spectroscopy is a tool that is used to study the secondary structure characteristics of a compound. Peptides and proteins can fold into organized structures, such as alpha helices and beta sheets, which are the result of complex hydrogen bonding and other interactions between amino acid side chains, as well as adopt a random coil formation, which lacks much of the organization of the other two structures. The CD spectrum of an alpha helix is characterized by two local minima at 208 nm and 222 nm. The ratio of the values of the molar ellipticities at these wavelengths ([θ]222/[θ]208) is a strong indication of the relative helicity of a compound; a compound is more helical when the ratio of these two values approaches 1.0. Synthetic constraints introduced to the peptide backbone can force a peptide chain to increase its helical character. These constraints can be introduced by staples, of varying types, which allow cyclization of the peptide backbone to take place.

[2] = Direct HA-binding ELISA of biotinylated peptides on HA coated plates (Example 4); design: key to HA binding: absorbance (color) read at 450 nm; conditions: for HA binding: as repeated in tables 16, 18, 20; for HA direct binding (OD): optical density, summary tables 15, 17, 19
Description: Each of these peptides was biotinylated at its amino-terminus, and an AEEA spacer was included to separate the peptide sequence from the biotin molecule.
HA coated plates were purchased (ECHELON). Peptides were dissolved in 2 mM PBS to constant molarity, aliquoted and stored at −20° C. until used in assays. 7 kDa biotin-labeled RHAMM (SEQ ID NO: 1) was synthesized and used as a positive control in these assays. Biotin labeled peptides were added to the HA coated wells (n=3 replicates/peptide) at either 0.8 or 0.08 μM and then incubated with shaking overnight at 4° C. Wells were washed free of excess unbound peptides using 200 μl PBS (4 times). 100 μl of Streptavidin-HRP was then added to each well and the plate was incubated at room temperature for 1 hr. The plate was then washed with 200 μl PBS/well 4 times and TMB Liquid Substrate System for ELISA (Sigma) was added to each well, incubated for 5-10 min at room temperature and color read at 450 nm Plate Reader (BioTek, SYNERGY H4, Hybrid Reader).
Direct HA-binding results for the biotinylated equivalents of compounds 132 and 150-161 are show in FIG. 39, and results for compounds 265-268 and 275-278 are shown in FIG. 40.

[3] = Circular dichroism (CD) spectroscopy of HABD2 peptides in Milli-Q water (Example 1); assay type: physicochemical; conditions: for [θ]222/[θ]208 ratio of ellipticities / fH fraction helicity / Molar ellipticity [θ]192 / Molar ellipticity [θ]208 / Molar ellipticity [θ]222: 0.5 mM in Milli-Q water; for fH fraction helicity: equations 1-3; for α-helical character by CD (in words): Milli-Q water; for Molar ellipticity [θ]192: λ = 192 nm; for Molar ellipticity [θ]208: λ = 208 nm; for Molar ellipticity [θ]222: λ = 222 nm
Excerpt: In addition, a large mean residue ellipticity indicates greater α-helical character. […] This was predicted to be the case, as there is a lack of contributing residues that might form a hydrophobic core, thereby helping to stabilize the secondary structure of the linear peptide. For this reason, bridges were introduced into the peptides. […] The differences in α-helicity induced by the bridges placed at different points within each peptide may be due to the differences in their primary sequences. Specifically, two amino acids (at the i and i+4 position) have to be replaced in order to form the lactam bridge. In compound 133, leucine was replaced at both the i and i+4 position; while in compound 136, glutamine was replaced at the i position and aspartic acid was replaced at i+4. Leucine and glutamine are proposed to be helix-stabilizing residues.
A larger portion of the RHAMM protein was used as the reference for α-helical character of the truncated peptides. 7 kDa RHAMM (SEQ ID NO: 1) is a mini protein that is composed of 62 amino acids, which was derived from the C-terminus of the full-length RHAMM sequence. It contains both HABDs, and is predicted to have almost complete α-helix shape, similar to that of native full-length RHAMM.
A peptide's α-helicity can be quantified using equations 1-3: fH=[([θ]obs222−[θ]c)/([θ]max222−[θ]c)] (Equation 1) [θ]c=2220+53T (Equation 2) [θ]max222=(−44000+250T)(1−k/N) (Equation 3) where fH is the ratio of the average number of helical hydrogen bonds divided by the total number of hydrogen bonds that can be found in a peptide, T is the temperature in degrees Celsius, N is the number of residues in the peptide and k is a constant of ellipticity when 100% of the structure is α-helical (3 for carboxyamidated peptides).
Milli-Q water was chosen as the solvent in which all peptides would be dissolved for CD spectroscopy, as it is a UV invisible solvent, which is a requirement of the analytical technique, and it represents RHAMM's natural environment in the body. Luo and Baldwin [18] stated that when peptides are taken out of their native protein sequence, they usually show little to no helical formation in water alone. For this reason, TFE/H2O solutions are commonly used in studies to observe the α-helix characteristics, and may improve the helical nature of the peptides observed here. However, a helix-stabilizing solvent, such as TFE, would not be as contextually relevant, as there are no solvent stabilizing effects in the body. Thus use of TFE would tend to produce skewed results and not be representative of the peptide's natural behavior.

[4] = [θ]222/[θ]208 ratio in water, summary tables 15, 17, 19
[5] = as repeated in tables 16, 18, 20

## Ac-(cyclo-5,9)-VSKL[KSQLE]KRKQN-NH2 (Ac-VSKLKSQLEKRKQN-NH2; lactam 5-9; SMILES CC(=O)N[C@H](C(=O)N[C@@H](CO)C(=O)N[C@@H](CCCCN)C(=O)N[C@@H](CC(C)C)C(=O)N[C@H]1CCCCNC(=O)CC[C@@H](C(=O)N[C@@H](CCCCN)C(=O)N[C@@H](CCCNC(=N)N)C(=O)N[C@@H](CCCCN)C(=O)N[C@@H](CCC(N)=O)C(=O)N[C@@H](CC(N)=O)C(N)=O)NC(=O)[C@H](CC(C)C)NC(=O)[C@H](CCC(N)=O)NC(=O)[C@H](CO)NC1=O)C(C)C) [Compound 154]
[1]; [4]
  [θ]222/[θ]208 ratio of ellipticities: 0.20
[1]; [5]
  [θ]222/[θ]208 ratio of ellipticities: 0.20
[1]; in 40% TFE/water
  [0]222/[0]208 ratio of ellipticities: 0.75
  [0]208 mean residue ellipticity: -1.18E+04 deg cm^2 dmol^−1
  [0]222 mean residue ellipticity: -8.78E+03 deg cm^2 dmol^−1
[1]; in water
  [0]222/[0]208 ratio of ellipticities: 0.20
  [0]208 mean residue ellipticity: -4,95E+03 deg cm^2 dmol^−1
  [0]222 mean residue ellipticity: -9.74E+02 deg cm^2 dmol^−1
[2]
  HA binding: 0.045
  HA direct binding (OD): 0.045 OD

## Ac-(cyclo-6,10)-VSKLR[KQLVE]RKQN-NH2 (Ac-VSKLRKQLVERKQN-NH2; lactam 6-10; SMILES CC(=O)N[C@H](C(=O)N[C@@H](CO)C(=O)N[C@@H](CCCCN)C(=O)N[C@@H](CC(C)C)C(=O)N[C@@H](CCCNC(=N)N)C(=O)N[C@H]1CCCCNC(=O)CC[C@@H](C(=O)N[C@@H](CCCNC(=N)N)C(=O)N[C@@H](CCCCN)C(=O)N[C@@H](CCC(N)=O)C(=O)N[C@@H](CC(N)=O)C(N)=O)NC(=O)[C@H](C(C)C)NC(=O)[C@H](CC(C)C)NC(=O)[C@H](CCC(N)=O)NC1=O)C(C)C) [Compound 155]
[1]; [4]
  [θ]222/[θ]208 ratio of ellipticities: 0.37
[1]; [5]
  [θ]222/[θ]208 ratio of ellipticities: 0.37
[1]; in 40% TFE/water
  [0]222/[0]208 ratio of ellipticities: 0.75
  [0]208 mean residue ellipticity: -1.71E+04 deg cm^2 dmol^−1
  [0]222 mean residue ellipticity: -1.28E+04 deg cm^2 dmol^−1
[1]; in water
  [0]222/[0]208 ratio of ellipticities: 0.37
  [0]208 mean residue ellipticity: -5.30E+03 deg cm^2 dmol^−1
[2]
  HA binding: 0.05
  HA direct binding (OD): 0.05 OD

## H-(cyclo-5,9)-VSKL[ESQLK]KRKQN-NH2 (H-VSKLESQLKKRKQN-NH2; lactam 5-9; SMILES CC(C)C[C@@H]1NC(=O)[C@H](CCC(N)=O)NC(=O)[C@H](CO)NC(=O)[C@@H](NC(=O)[C@H](CC(C)C)NC(=O)[C@H](CCCCN)NC(=O)[C@H](CO)NC(=O)[C@@H](N)C(C)C)CCC(=O)NCCCC[C@@H](C(=O)N[C@@H](CCCCN)C(=O)N[C@@H](CCCNC(=N)N)C(=O)N[C@@H](CCCCN)C(=O)N[C@@H](CCC(N)=O)C(=O)N[C@@H](CC(N)=O)C(N)=O)NC1=O) [Compound 134]
[3]
  [θ]222/[θ]208 ratio of ellipticities: 0.57
  fH fraction helicity: 0.22
  α-helical character by CD (in words): increase in α-helix structure
  Molar ellipticity [θ]192: 1002.14 deg cm^2 dmol^−1 residue^−1
  Molar ellipticity [θ]208: −7685.97 deg cm^2 dmol^−1 residue^−1
  Molar ellipticity [θ]222: −4403.89 deg cm^2 dmol^−1 residue^−1

## H-(cyclo-7,11)-VSKLRS[ELVKK]KQN-NH2 (H-VSKLRSELVKKKQN-NH2; lactam 7-11; SMILES CC(C)C[C@H](NC(=O)[C@H](CCCCN)NC(=O)[C@H](CO)NC(=O)[C@@H](N)C(C)C)C(=O)N[C@@H](CCCNC(=N)N)C(=O)N[C@@H](CO)C(=O)N[C@H]1CCC(=O)NCCCC[C@@H](C(=O)N[C@@H](CCCCN)C(=O)N[C@@H](CCC(N)=O)C(=O)N[C@@H](CC(N)=O)C(N)=O)NC(=O)[C@H](CCCCN)NC(=O)[C@H](C(C)C)NC(=O)[C@H](CC(C)C)NC1=O) [Compound 136]
[3]
  [θ]222/[θ]208 ratio of ellipticities: 0.30
  fH fraction helicity: 0.14
  α-helical character by CD (in words): did not seem to stabilize
  Molar ellipticity [θ]192: 1437.80 deg cm^2 dmol^−1 residue^−1
  Molar ellipticity [θ]208: −5084.93 deg cm^2 dmol^−1 residue^−1
  Molar ellipticity [θ]222: −1568.07 deg cm^2 dmol^−1 residue^−1

B1: 7 kDa RHAMM: mini protein of 62 amino acids derived from the C-terminus of full-length RHAMM, contains both HABDs; reference for α-helical character (protein, listed as Mus musculus)
chain: RDSYAQLLGHQNLKQKIKHVVKLKDENSQLKSEVSKLRSQLVKRKQNELRLQGELDKALGIR
[3]
  [θ]222/[θ]208 ratio of ellipticities: 0.46
  fH fraction helicity: 0.18
  Molar ellipticity [θ]192: 1839.66 deg cm^2 dmol^−1 residue^−1
  Molar ellipticity [θ]208: −7553.76 deg cm^2 dmol^−1 residue^−1
  Molar ellipticity [θ]222: −4046.60 deg cm^2 dmol^−1 residue^−1
